Read-outs that look alike come from different tables or passages of the source.
How the values were obtained:
[1] = molecular target: T1, human B7H4 on the cell surface (human, UniProt Q7Z7D3 25-282); experiment: FACS on MDA-MB-468 cells; in the drawn table the number stands under the head 'EC50 (nM)' (the two heads are interchanged)
T1 construct: whole, on cells; also called CHOK1/hu B7H4; B7H4 on SK-BR-3
T1 sequence (looked up): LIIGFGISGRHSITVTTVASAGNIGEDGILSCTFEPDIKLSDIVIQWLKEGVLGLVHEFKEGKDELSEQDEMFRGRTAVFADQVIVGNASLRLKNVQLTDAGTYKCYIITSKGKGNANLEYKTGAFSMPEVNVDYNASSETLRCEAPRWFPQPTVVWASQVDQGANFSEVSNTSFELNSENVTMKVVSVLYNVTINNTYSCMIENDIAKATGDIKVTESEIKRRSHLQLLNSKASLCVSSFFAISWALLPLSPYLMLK

[2] = molecular target: T2, mouse B7H4 on the cell surface (mouse, UniProt Q7TSP5 25-257); experiment: FACS, CHOK1/m B7H4 cells
T2 construct: whole, on cells; also called CHOK1/m B7H4
T2 sequence (looked up): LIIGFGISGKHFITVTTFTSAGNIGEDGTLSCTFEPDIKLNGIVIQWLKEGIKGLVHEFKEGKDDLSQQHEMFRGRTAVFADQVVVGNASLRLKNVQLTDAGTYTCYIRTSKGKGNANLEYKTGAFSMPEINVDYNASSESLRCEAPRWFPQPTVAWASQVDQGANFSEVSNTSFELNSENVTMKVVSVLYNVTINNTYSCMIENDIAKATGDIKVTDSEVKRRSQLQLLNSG
Method: (§1) This example is intended to investigate the in vitro binding activity of anti-human B7H4 H2L2 monoclonal antibody to human/cynomolgus monkey/mouse B7H4. Antibody binding experiments at the cellular level were performed using CHOK1 cell line overexpressing human B7H4 (CHOK1/hu B7H4, Harbour BioMed), CHOK1 cell line overexpressing cynomolgus monkey B7H4 (CHOK1/cyno B7H4, Harbour BioMed), CHOK1 cell line overexpressing mouse B7H4 (CHOK1/m B7H4, Harbour BioMed) and SK-BR-3 cell line (ATCC® HTB-30) highly expressing human B7H4. Briefly, CHOK1/hu B7H4 cells, CHOK1/cyno B7H4 cells, CHOK1/m B7H4 cells or SK-BR-3 cells were digested and resuspended with PBS containing 2% BSA. The cell density was adjusted to 1×10⁶ cells/mL. The cells were seeded in a 96-well V-bottom plate (Corning, #3894) at 100 μL/well, followed by the addition of test antibodies diluted in a 3-fold concentration gradient of 2 times the final concentration, each at 100 μL/well. The cells were incubated at 4° C. for 2 h away from light. Thereafter, the cells in each well were rinsed twice with 100 μL of pre-cooled PBS containing 2% BSA, and centrifuged at 500 g at 4° C. for 5 min, and then the supernatant was discarded. […] Finally, the cells in each well were resuspended with 200 μL of pre-cooled PBS containing 2% BSA, and the fluorescence signal values were read using an ACEA Novocyte3000 flow cytometer.

[3] = molecular target: T3, cynomolgus monkey B7H4 on the cell surface (cynomolgus monkey, UniProt A0A2K5U6P5 25-282); experiment: FACS, CHOK1/cyno B7H4 cells
T3 construct: whole, on cells; also called CHOK1/cyno B7H4
T3 sequence: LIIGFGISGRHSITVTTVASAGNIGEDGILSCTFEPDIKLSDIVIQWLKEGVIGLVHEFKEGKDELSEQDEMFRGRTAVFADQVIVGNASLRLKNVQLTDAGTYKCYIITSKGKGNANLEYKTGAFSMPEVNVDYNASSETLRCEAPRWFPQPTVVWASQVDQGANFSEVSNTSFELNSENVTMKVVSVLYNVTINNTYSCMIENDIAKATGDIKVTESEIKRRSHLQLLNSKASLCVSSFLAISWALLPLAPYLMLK
Method: (§2) This example is intended to investigate the in vitro binding activity of anti-human B7H4 H2L2 monoclonal antibody to human/cynomolgus monkey/mouse B7H4. Antibody binding experiments at the cellular level were performed using CHOK1 cell line overexpressing human B7H4 (CHOK1/hu B7H4, Harbour BioMed), CHOK1 cell line overexpressing cynomolgus monkey B7H4 (CHOK1/cyno B7H4, Harbour BioMed), CHOK1 cell line overexpressing mouse B7H4 (CHOK1/m B7H4, Harbour BioMed) and SK-BR-3 cell line (ATCC® HTB-30) highly expressing human B7H4. Briefly, CHOK1/hu B7H4 cells, CHOK1/cyno B7H4 cells, CHOK1/m B7H4 cells or SK-BR-3 cells were digested and resuspended with PBS containing 2% BSA. The cell density was adjusted to 1×10⁶ cells/mL. The cells were seeded in a 96-well V-bottom plate (Corning, #3894) at 100 μL/well, followed by the addition of test antibodies diluted in a 3-fold concentration gradient of 2 times the final concentration, each at 100 μL/well. The cells were incubated at 4° C. for 2 h away from light. Thereafter, the cells in each well were rinsed twice with 100 μL of pre-cooled PBS containing 2% BSA, and centrifuged at 500 g at 4° C. for 5 min, and then the supernatant was discarded. Then 100 μL of a fluorescent secondary antibody (Alexa Fluor 488-conjugated AffiniPure Goat Anti-Human IgG, Fcγ Fragment Specific, Jackson, #109-545-098, 1:500 diluted) was added to each well. The plate was incubated away from light at 4° C. for 1 h. The cells in each well were washed twice with 100 μL of pre-cooled PBS containing 2% BSA, and centrifuged at 500 g at 4° C. for 5 minutes, and then the supernatant was discarded. Finally, the cells in each well were resuspended with 200 μL of pre-cooled PBS containing 2% BSA, and the fluorescence signal values were read using an ACEA Novocyte3000 flow cytometer.

[4] = molecular target: T1, human B7H4 on the cell surface; experiment: FACS on MDA-MB-468 cells; in the drawn table the number stands under the head 'Maximum MFI' (the two heads are interchanged); the head says nM, the axis of the curve µg/mL
[5] = molecular target: T2, mouse B7H4 on the cell surface; experiment: FACS, CHOK1/m B7H4 cells; remark: listed apart in the source
Method: as §1

[6] = molecular target: T1, human B7H4 on the cell surface; experiment: FACS on MDA-MB-468 cells
[7] = molecular target: T3, cynomolgus monkey B7H4 on the cell …; experiment: FACS, CHOK1/cyno B7H4 cells; remark: listed apart in the source
Method: as §1

[8] = molecular target: T1, human B7H4 on the cell surface; experiment: FACS, CHOK1/hu B7H4 cells
Method: as §2

B1: Control antibody 1 (PR000157) (antibody, V domains shown)
VH: EVQLVQSGAEVKKPGASVKVSCKASGYTFTSYWIGWVRQAPGQGLEWIGDIYPGGGYTNYNEKFKGRVTITRDTSTSTAYLELSSLRSEDTAVYYCARLAGSSYRGAMDSWGQGTLVTVSS
VL: DIQMTQSPSSLSASVGDRVTITCKASQGFNKYVAWYQQKPGKAPKLLIYYTSTLQPGVPSRFSGSGSGRDYTLTISSLQPEDFATYYCLQYGDLLYAFGQGTKVEIKR
notes: Anti-B7H4 IgG1 control antibody from WO2016040724A1; also called 1D11.v1.9varC2
B1 was tested, and the “Maximum MFI” value [1] was 254000, the EC50 [2] was 1.38 nM and the “Maximum MFI” value [2] was 858000 MFI. The EC50 [3] was 2.06 nM, the “Maximum MFI” value [3] was 1.32e+06 MFI and the EC50 [4] was 0.194 nM. The EC50 [5] was 1.73 nM, the “Maximum MFI” value [5] was 1.75e+06 MFI and the “EC50 (read off the curve)” value [6] was ~0.2 µg/mL. The EC50 [7] was 2.1 nM, the “Maximum MFI” value [7] was 1.99e+06 MFI and the EC50 [8] was 1.94 nM. The “Maximum MFI” value [8] was 1.84e+06 MFI.
